What is called IC50 is the concentration that gives 50% inhibition.

Some targets named below: HLA-A*02:01; HLA-B*53:01; HLA-B*35:01; HLA-B*57:01; HLA-B*44:03; HLA-B*07:02.
Common to all, as to assay: IEDB peptide-MHC binding, purified MHC/competitive/radioactivity; ≥ and ≤ were set here for values at or beyond the usual limits of such assays
Settings in all cases: source organism: Bordetella pertussis

Where only a bound is given, the exact number is not on record here.

On to ALANDGTIV, for which the IC50 with HLA-A*02:01 is at least 78.1 µM.
As to DATFQTYAL, the IC50 in the assay with HLA-B*53:01 is 65.4 µM; with HLA-B*35:01, 17 µM.
On to DHLTGRSCQ, for which the IC50 with HLA-B*57:01 was at least 70.4 µM.
For EVAGALELS, the IC50 with HLA-B*35:01 was found to be 69.9 µM.
Turning to FEGKPALEL, the IC50 in the assay with HLA-B*44:03 is at least 70.1 µM.
As to GAFDLKTTF, the IC50 with HLA-B*57:01 was 50.9 µM.
With GKSLKKKNQ, in the assay with HLA-B*35:01, the IC50 is 69.9 µM.
Consider KPLADIAVV, for which the IC50 in the assay with HLA-B*07:02 was found to be 5.56 µM.
Turning to LALQAGDAL, in the assay with HLA-B*35:01, the IC50 is 31.5 µM.
For the sequence MAAGHDATL, the IC50 with HLA-B*53:01 was 6.13 µM.
Consider NITNKRAAL, for which the IC50 with HLA-B*07:02 was found to be 22.9 µM.
Regarding PKPKPKPKA, the IC50 with HLA-B*35:01 worked out at 69.9 µM.
Regarding RSRVRALSW, the IC50 with HLA-B*57:01 was 0.0584 µM.
For VSSATKAKG, the IC50 in the assay with HLA-B*57:01 is at least 70.4 µM.

Source of the values: the Immune Epitope Database (IEDB).
